The target in this assay is T1, CFP-PPARγ2 (peroxisome proliferator activated receptor γ2 fused to ECFP) (UniProt P37231-1 1-505).
T1 sequence (looked up): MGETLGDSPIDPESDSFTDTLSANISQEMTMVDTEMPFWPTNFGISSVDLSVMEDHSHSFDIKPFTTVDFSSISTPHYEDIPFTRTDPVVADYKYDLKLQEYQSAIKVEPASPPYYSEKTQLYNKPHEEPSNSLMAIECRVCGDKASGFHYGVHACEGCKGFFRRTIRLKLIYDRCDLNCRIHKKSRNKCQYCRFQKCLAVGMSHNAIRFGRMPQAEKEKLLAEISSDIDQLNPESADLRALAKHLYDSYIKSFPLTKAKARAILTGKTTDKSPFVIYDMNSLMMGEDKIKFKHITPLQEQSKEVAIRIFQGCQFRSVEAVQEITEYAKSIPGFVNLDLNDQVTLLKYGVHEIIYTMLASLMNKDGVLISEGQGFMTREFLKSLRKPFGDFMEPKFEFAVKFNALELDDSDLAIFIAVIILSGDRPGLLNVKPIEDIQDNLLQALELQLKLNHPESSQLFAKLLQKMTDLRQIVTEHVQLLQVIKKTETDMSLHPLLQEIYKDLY
Briefly: FRET or BRET. For orientation: Bioluminescence resonance energy transfer reports proximity on the nanometre scale.

B1: EYFP-SRC-3 (steroid receptor coactivator 3 fused to EYFP) (natural protein)
chain: not shown
As for B1, the “fold change in FRET, MIX against vehicle” value is above 1.5 fold.

B2: EYFP-SRC-2 (steroid receptor coactivator 2 fused to EYFP) (natural protein)
chain: not shown
With B2, the “fold change in FRET, MIX against vehicle” value was above 1.5 fold.

The record behind these values is publication PMC3019557 (The Journal of Cell Biology, 2011).
